For assay [1], the target named is T1, (1-43)::FLAG::muCDH19(44-323)::raCDH19(324-327)::muCDH19(328-770), on 293T cells (mouse/rat chimera).
T1 construct: Entry holds leader (1-43), Flag tag and CDH19 part; leader left out; also called Ra EC3c
T1 chain: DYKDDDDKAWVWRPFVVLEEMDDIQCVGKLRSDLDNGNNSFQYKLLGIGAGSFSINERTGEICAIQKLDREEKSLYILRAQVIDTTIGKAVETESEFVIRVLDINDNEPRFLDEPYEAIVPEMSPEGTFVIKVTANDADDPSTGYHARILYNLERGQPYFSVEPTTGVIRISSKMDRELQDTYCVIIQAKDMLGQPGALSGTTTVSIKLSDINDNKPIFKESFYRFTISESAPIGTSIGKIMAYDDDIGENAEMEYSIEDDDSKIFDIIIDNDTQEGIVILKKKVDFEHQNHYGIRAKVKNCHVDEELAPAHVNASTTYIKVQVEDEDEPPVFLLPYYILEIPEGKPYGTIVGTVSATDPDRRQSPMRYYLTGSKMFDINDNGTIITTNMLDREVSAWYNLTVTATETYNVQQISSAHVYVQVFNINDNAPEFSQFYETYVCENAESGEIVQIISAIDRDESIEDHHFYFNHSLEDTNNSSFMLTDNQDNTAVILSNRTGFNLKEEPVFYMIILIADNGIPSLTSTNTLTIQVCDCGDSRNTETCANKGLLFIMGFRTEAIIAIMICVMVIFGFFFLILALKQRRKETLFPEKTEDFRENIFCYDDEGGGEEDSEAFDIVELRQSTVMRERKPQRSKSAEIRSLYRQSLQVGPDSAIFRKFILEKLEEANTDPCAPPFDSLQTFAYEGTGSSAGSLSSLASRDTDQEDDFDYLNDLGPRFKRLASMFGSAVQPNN
Briefly: FACS, transfected 293T. Background: A flow cytometer gives signals particle by particle.

Assay [2] has as its target T2, muCDH19(44-139)::huCDH19(142-364)::muCDH19(363-770), Flag-tagged, on 293T cells (human/mouse chimera).
T2 construct: also called Hu EC2-3; C137847
The assay is described as follows: FACS, transfected 293T.
From the text: The experiment included assaying the anti-CDH19 antibodies against mouse Cadherin19 to determine suitability for binning on these human/mouse chimeras.

The target of assay [3] is T3, caCDH19(1-43)::FLAG::caCDH19(44-87)::rhCDH19(89-114)::caCDH19(115-770), on 293T cells (rhesus macaque/dog chimera).
T3 construct: also called rh EC1b (dog backbone)
T3 chain: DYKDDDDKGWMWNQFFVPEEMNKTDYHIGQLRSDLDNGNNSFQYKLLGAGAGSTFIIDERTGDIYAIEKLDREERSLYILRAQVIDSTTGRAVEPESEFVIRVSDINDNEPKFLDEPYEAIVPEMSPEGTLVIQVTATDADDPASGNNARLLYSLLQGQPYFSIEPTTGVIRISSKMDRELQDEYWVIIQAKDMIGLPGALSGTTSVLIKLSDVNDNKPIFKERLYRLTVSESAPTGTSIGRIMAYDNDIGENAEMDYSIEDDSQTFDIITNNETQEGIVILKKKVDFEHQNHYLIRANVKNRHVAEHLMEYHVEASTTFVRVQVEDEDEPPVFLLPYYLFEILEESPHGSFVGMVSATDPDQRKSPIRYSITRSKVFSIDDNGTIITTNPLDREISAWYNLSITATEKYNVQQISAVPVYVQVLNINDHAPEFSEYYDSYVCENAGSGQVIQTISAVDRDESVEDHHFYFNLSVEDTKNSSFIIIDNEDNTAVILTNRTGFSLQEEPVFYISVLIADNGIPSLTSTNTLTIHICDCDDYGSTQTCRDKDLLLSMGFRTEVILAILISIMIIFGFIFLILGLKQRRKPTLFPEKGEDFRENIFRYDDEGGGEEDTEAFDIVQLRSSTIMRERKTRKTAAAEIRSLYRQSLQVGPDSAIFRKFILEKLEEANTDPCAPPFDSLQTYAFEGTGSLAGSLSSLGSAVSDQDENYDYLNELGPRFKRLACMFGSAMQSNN
Briefly: FACS, transfected 293T.
Method: (§1) The following binding assay was completed in presence of 2 mM CaCl2. […] Cells were then washed one time and the amount of cell associated Alexa647-labelled Ab was quantitated by flow cytometry. The experiments included mock transfected controls.

The target in assay [4] is T4, caCDH19(1-42)::FLAG::caCDH19(43-770), on 293T cells (dog).
T4 construct: also called Ca EC1-5
T4 chain: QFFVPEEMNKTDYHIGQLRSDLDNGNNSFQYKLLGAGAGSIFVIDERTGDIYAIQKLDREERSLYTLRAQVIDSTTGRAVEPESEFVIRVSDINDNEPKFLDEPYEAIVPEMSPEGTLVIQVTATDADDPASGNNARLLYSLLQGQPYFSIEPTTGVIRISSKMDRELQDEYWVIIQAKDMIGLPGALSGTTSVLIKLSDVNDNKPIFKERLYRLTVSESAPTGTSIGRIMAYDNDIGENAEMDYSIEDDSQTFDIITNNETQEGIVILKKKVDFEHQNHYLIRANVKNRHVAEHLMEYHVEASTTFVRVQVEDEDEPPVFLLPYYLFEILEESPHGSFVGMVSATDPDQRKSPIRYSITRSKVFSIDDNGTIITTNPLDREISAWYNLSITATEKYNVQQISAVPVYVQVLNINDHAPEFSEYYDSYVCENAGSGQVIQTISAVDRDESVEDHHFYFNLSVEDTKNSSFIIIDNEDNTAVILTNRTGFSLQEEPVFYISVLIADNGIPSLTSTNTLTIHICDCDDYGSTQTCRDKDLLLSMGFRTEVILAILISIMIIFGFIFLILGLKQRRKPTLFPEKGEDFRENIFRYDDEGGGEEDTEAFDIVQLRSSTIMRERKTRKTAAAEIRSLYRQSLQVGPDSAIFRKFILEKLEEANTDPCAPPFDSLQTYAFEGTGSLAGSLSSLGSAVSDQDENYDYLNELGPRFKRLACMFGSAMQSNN
The assay is described as follows: FACS, transfected 293T.
Method: as §1

Assay [5] deals with T5, rhCDH19(1-43)::FLAG::rhCDH19(44-141)::caCDH19(141-770), on 293T cells (rhesus macaque/dog chimera).
T5 construct: Entry holds leader (1-43), Flag tag and CDH19 part; leader left out; also called rh EC1 (dog backbone)
Briefly: FACS, transfected 293T.
Method: as §1

The target in assay [6] is T6, rhCDH19(1-43)::FLAG::rhCDH19(44-65)::caCDH19(65-770), on 293T cells (rhesus macaque/dog chimera).
T6 construct: Entry holds leader (1-43), Flag tag and CDH19 part; leader left out; also called rh EC1a (dog backbone)
Briefly: FACS, transfected 293T.
Method: as §1

A further assay concerns the target T7, Human Cadherin-19 (human, UniProt Q9H159 44-772).
T7 construct: Residues 1-43 are named as the native leader in the construct designations and are left out; also called human CDH19; huCDH19
Briefly: FACS, endogenous CDH19 on CHL-1/Colo699.

Method for Human Cadherin-19: FACS binding assays were performed to evaluate the binding of the anti-Cadherin-19 receptor specific antibodies to endogenous Cadherin-19 receptor expressed on the CHL-1 tumor cell lines.
FACs assays were performed by incubating hybridoma supernatants with 10,000 to 25,000 cells in PBS/2% Fetal bovine serum/2 mM Calcium Chloride at 4° C. for one hour followed by two washes with PBS/2% Fetal bovine serum/2 mM Calcium Chloride. Cells were then treated with florochrome-labeled secondary antibodies at 4° C. followed by one wash. The cells were resuspended in 50 μl of PBS/2% FBS and antibody binding was analyzed using a FACSCalibur™ instrument.

B1: anti-CDH19 antibody 2G6 (Ab ID 13588) (antibody, human IgG1, lambda, V domains shown)
VH: QVQLVESGGGVVQPGRSLRLSCAASGFTFSSYGMHWVRQAPGKGLEWVAFIWYDGSNKYYADSVKDRFTISRDNSKNTLYLQMKSLRAEDTAVYYCARRAGIIGTIGYYYGMDVWGQGTTVTVSS
VL: SYELTQPPSVSVSPGQTASITCSGDRLGEKYTCWYQQRPGQSPLLVIYQDTKRPSGIPERFSGSNSGNTATLTISGTQAMDEADYYCQAWDSSTVVFGGGTKLTVLG
In the case of B1, the binding result in assay [1] and in assay [2] was “binds” each time.

B2: hu anti-<huCDH19> 4B10 VH::huIgG1z / 4B10 VL::huKLC (Ab ID 13590) (antibody, V domains shown)
VH: QVQLVESGGGVVQPGRSLRLSCAASGFTFSSYDMHWVRQAPGKGLEWVAVISYDGTNEYYADSVKGRFTISRDTSKNTLYLQMNSLRAEDTAVYYCARERYFDWSFDYWGQGTLVSVSS
VL: EIVLTQSPGTLSLSPGERATLSCRASQSVSNTYLAWYHQRPGQAPRLLIYGASSRATGIPDRFSGSGSGTDFALTISSLEPEDFAVYYCQQYSNSWTFGQGTKVEIKR
For the molecule B2, the binding result in assay [1] and in assay [2] was “binds” each time.

B3: hu anti-<huCDH19> 26D1.1 VH::huIgG1z / 26D1.1 VL::huLLC-C2 (Ab ID 13882) (antibody, V domains shown)
VH: QVQLVQSGAEVKKPGASVKVSCKASRYTFTSYYMSWVRQAPGQGLEWMGIIHPSGGDTTYAQKFQGRVTMTGDTSTSTVYMELSSLRSEDTAVYYCARGGIKLWLHFDYWGQGTLVTVSS
VL: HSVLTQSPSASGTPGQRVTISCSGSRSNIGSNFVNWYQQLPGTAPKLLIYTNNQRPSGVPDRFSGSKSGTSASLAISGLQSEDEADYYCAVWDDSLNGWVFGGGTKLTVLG
In the case of B3, the binding result was “binds” in assay [3]; “no binding (tested: 5 ug/ml)” in assay [4]; “binds” in assay [5]; “binds” in assay [6]; “binds” with Human Cadherin-19.

B4: hu anti-<huCDH19> 4A9 VH::huIgG1z / 4A9 VL::huLLC-C1 (Ab ID 13589) (antibody, V domains shown)
VH: QVQLQESGPGLVKPSETLSLTCTVSGGSISGYYWSWIRQPPGKGLEWFAYFSYSGSTNYNPSLKSRVTLSVDTSKNQFSLKLSSVTAADTAVYYCARNWAFHFDFWGQGTLVTVSS
VL: QSVLTQPPSVSGAPGQRVTISCTGSSSNIGTGYAVHWYQQFPGTAPKLLIYGNNNRPSGVPDRFSGSKSGTSASLAITGLQAEDEADYYCQSYDSRLSGWVFGGGTKLTVLG
notes: Recombinant fully human IgG1
For B4, the binding result in assay [3] is listed as “no binding (tested: 5 ug/ml)”; in assay [4], “no binding (tested: 5 ug/ml)”; in assay [5], “binds”; in assay [6], “no binding (tested: 5 ug/ml)”; with Human Cadherin-19, “binds”.

The values above are taken from US20140322218A1 (Amgen, published 2014).
